The chains are these.
B1: CpfC (coproporphyrin ferrochelatase) (Corynebacterium glutamicum ATCC 13032) (protein)
chain: MNERTSDAFDALLVLSFGGPEGHEEVRPFLENVTHGRGIPPERLDEVAVHYHHFGGISPINALNREIIANVEKELASRDHKLPVYFGNRNWKPFDNEAAEQMADDGVKNALVLATSAWGGYSGCRQYQEDIQGMIKHLESQGQSITFTKLRQFYDHPRFVSTMAQLVQDSYAKLPDELRDEARLVFTAHSIPLTADNAAGTPEDGSLYSTQVKEASALIAEAVGVSDFDVVWQSRSGSPHTPWLEPDIVDHAVELNEKGQKALVVCPVGFISDHMEVIWDLDSELMEEAEKRNMVVERVATVGPTDEFAALVVDLIEEAELKRVIERLGKLPARGSSVNGAPCGDGCCGTAKHKTARVNPNARSAAPAAN
notes: heterologously expressed in E. coli BL21, purified
B2: CpfC (coproporphyrin ferrochelatase) (Corynebacterium glutamicum ATCC 13032; E181G) (protein)
chain: B1 chain with E181G
notes: as for B1
B3: CpfC (coproporphyrin ferrochelatase) (Corynebacterium glutamicum ATCC 13032; E31V) (protein)
chain: B1 chain with E31V
notes: as for B1
B4: CpfC (coproporphyrin ferrochelatase) (Corynebacterium glutamicum ATCC 13032; E100D) (protein)
chain: B1 chain with E100D
notes: as for B1
B5: CpfC (coproporphyrin ferrochelatase) (Corynebacterium glutamicum ATCC 13032; E100D/E31V) (protein)
chain: B1 chain with E31V, E100D
notes: as for B1
B6: CpfC (coproporphyrin ferrochelatase) (Corynebacterium glutamicum ATCC 13032; T194S) (protein)
chain: B1 chain with T194S
notes: as for B1

Changes are numbered by the printed parent chain. In names and notes the source's numbering stands.

Substrate in this data set: CC1=C(CCC(=O)O)c2cc3nc(cc4[nH]c(cc5[nH]c(cc1n2)c(C)c5CCC(=O)O)c(CCC(=O)O)c4C)C(CCC(=O)O)=C3C
Description: purified protein. The class given is biochemical, Corynebacterium glutamicum. The following applies: ferrous ammonium sulfate 100 uM, Tris-HCl pH 8.0, 3.3% Tween 20, 5 mM glutathione, 30 °C.
In the case of B1, the Km is given as 15.17 ± 1.84 × 10^-3 mM; the kcat (in general, the maximal rate divided by the concentration of active sites) is 0.26 ± 0.09 s⁻¹; the kcat/Km (usually the second-order rate constant that governs catalysis at low substrate concentration) came to 17430 ± 110 M⁻¹ s⁻¹.
Turning to B2, the Km is listed as 10.04 ± 1.52 × 10^-3 mM, the kcat turned out to be 0.3 ± 0.04 s⁻¹ and the kcat/Km amounted to 30600 ± 4310 M⁻¹ s⁻¹.
On the same counts, the results for B3 are 8.26 ± 0.52 × 10^-3 mM, 0.43 ± 0.01 s⁻¹ and 52900 ± 1400 M⁻¹ s⁻¹.
In the case of B4, the Km is recorded as 9.40 ± 1.50 × 10^-3 mM, the kcat was found to be 0.36 ± 0.06 s⁻¹ and the kcat/Km amounted to 38100 ± 650 M⁻¹ s⁻¹.
As for B5, the Km is on record as 9.78 ± 0.82 × 10^-3 mM, the kcat was found to be 0.36 ± 0.04 s⁻¹ and the kcat/Km was 37000 ± 4520 M⁻¹ s⁻¹.
Turning to B6, the Km is reported as 11.63 ± 1.50 × 10^-3 mM, the kcat is 0.32 ± 0.06 s⁻¹ and the kcat/Km is 27300 ± 4880 M⁻¹ s⁻¹.
